Results reported in PMC11321701, “Generation and Characterization of Novel Pan‐Cancer Anti‐uPAR Fluorescent Nanobodies as Tools for Image‐Guided Surgery” (Advanced Science, 2024).
Residue numbers refer to the chain shown, from its start. Where two headings read alike, the source gives them in different places. Values belong to the binder of their own block, whether it stands above or below them.

How the values were obtained:
[1] = target: T1, recombinant murine urokinase plasminogen activator receptor (MuPAR) protein (Mus musculus, UniProt P35456); experiment: SPR; kinetic binding parameters (ka, kd, KD) of purified Nbs toward recombinant H, M or CuPAR antigens; conditions: both partners purified
T1 construct: 'Extracellular domain' is said of the immunogen; also called murine uPAR
T1 sequence (P35456 whole entry, looked up, the tested form may be a part): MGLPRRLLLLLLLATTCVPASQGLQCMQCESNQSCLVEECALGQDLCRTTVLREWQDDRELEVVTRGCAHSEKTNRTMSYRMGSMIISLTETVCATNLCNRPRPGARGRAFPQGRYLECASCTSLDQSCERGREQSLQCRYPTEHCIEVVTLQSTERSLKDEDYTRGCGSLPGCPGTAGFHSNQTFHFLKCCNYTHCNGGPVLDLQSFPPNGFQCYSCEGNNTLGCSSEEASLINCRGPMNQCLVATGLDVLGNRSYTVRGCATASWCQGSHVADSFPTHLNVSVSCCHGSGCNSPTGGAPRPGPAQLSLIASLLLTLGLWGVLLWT

[2] = target: T2, recombinant human urokinase plasminogen activator receptor (HuPAR) protein (Homo sapiens, UniProt Q03405)
Target sequence in this assay (Q03405 23-305): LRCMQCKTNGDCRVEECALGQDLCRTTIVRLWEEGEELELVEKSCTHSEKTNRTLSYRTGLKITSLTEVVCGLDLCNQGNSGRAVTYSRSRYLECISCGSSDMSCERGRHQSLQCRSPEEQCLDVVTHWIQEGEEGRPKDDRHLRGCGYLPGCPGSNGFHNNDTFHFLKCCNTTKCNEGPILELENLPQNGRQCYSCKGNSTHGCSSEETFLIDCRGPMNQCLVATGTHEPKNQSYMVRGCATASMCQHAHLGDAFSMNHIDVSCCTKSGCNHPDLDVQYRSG

[3] = target: T2, recombinant human urokinase plasminogen …; experiment: SPR; kinetic binding parameters (ka, kd, KD) of purified Nbs toward recombinant H, M or CuPAR antigens; conditions: both partners purified
Target sequence in this assay (Q03405 whole entry, looked up): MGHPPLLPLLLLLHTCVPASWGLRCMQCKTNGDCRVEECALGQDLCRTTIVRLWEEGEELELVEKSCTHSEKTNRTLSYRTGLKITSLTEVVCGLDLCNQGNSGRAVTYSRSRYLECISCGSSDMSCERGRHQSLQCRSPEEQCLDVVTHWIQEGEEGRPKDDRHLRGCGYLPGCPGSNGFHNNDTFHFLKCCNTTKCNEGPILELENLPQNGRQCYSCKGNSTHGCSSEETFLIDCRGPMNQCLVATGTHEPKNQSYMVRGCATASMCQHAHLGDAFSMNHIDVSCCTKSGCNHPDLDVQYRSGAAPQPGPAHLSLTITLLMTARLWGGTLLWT

[4] = target: T1, recombinant murine urokinase …; experiment: ELISA; BE-ELISA: bacterial extracts of Nb clones on H, M or CuPAR protein, against uncoated control; cross-reactivity screening; conditions: one partner purified

Kd [1]: < 10 nM
B1: Nb 13 (VHH)
VHH: QVQLQESGGGLVQSGGSLRLSCAVSGIGFVYYAMRWWRQAPGKERELVAGITGASGNTNYAESVKDRFTISRDNASNTVYLQMNSLKPEDTAVYYCNAAPLIRFGPPKDYWGQGTQVTVSS
notes: Nb 13 is the only member of its family; Nanobody from a llama immunized with human and murine uPAR; also called lead anti-MuPAR Nanobody; source: E. coli WK6, purified from the periplasm (osmotic shock, IMAC, SEC)

Kd [3]: < 10 nM
binding result [4]: no binding
B5: Nb 15 (VHH)
VHH: QVQLQESGGGWVQPGGSLRLSCAASGFTLDYYGIGWFRQAPGKEREGVSCISSSDGSTYYADSVKGRFTISRDNAKNTVYLQMNSLKPEDTAVYYCATRGASCYYTGSYSLGYDYWGQGTQVTVSS
notes: Nanobody from a llama immunized with human and murine uPAR; The clone in bacterial extracts came before recloning into the expression vector, so its tags may differ from the purified form; also called anti-HuPAR Nb 15; lead anti-HuPAR/CuPAR Nanobody; source: E. coli WK6, purified from the periplasm (osmotic shock, IMAC, SEC); bacterial extracts for ELISA and SPR off-rate screening

Further lines, the binder ahead of its results:

B2: 5A5 (Nb 16) (VHH)
VHH: B5 VHH with W11L, A24I, T106S
Kd [2]: 3 nM

B3: 5H2 (Nb 18) (VHH)
VHH: B5 VHH with W11L, V12A, A23T, L29S
Kd [2]: 4.7 nM

B4: 5B7 (Nb 17) (VHH)
VHH: B5 VHH with W11L, A24V, F27S, D30E
Kd [2]: 2.3 nM
